B1: CASP6 (parent)
chain: TCADRDNLTRRFSDLGFEVKCFND
B2: KCNA4 (parent)
chain: YQLGEEALLKFREDEGFVREEEDR

Variants of: B1
Assay: protein stability index of a GFP-peptide fusion (GPS, HEK-293T) (PSI 1-6); higher = more stable
Details: c terminus: a fixed tail appended
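Note: lentivirally expressed fusions sorted by FACS into six bins by GFP to DsRed ratio, PSI derived from sequencing read proportions per bin multiplied by bin number.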

| Variant | protein stability index |
| --- | --- |
| GCADRDNLTRRFSDLGFEVKCFND [T1G] | 3.2 |
| ICADRDNLTRRFSDLGFEVKCFND [T1I] | 2.73 |
| YCADRDNLTRRFSDLGFEVKCFND [T1Y] | 2.15 |
| KCADRDNLTRRFSDLGFEVKCFND [T1K] | 3.07 |
| VCADRDNLTRRFSDLGFEVKCFND [T1V] | 2.92 |
| RCADRDNLTRRFSDLGFEVKCFND [T1R] | 3.06 |
| DCADRDNLTRRFSDLGFEVKCFND [T1D] | 4.37 |
| ACADRDNLTRRFSDLGFEVKCFND [T1A] | 3.73 |
| WCADRDNLTRRFSDLGFEVKCFND [T1W] | 2.32 |
| SCADRDNLTRRFSDLGFEVKCFND [T1S] | 3.28 |
| ECADRDNLTRRFSDLGFEVKCFND [T1E] | 3.74 |
| FCADRDNLTRRFSDLGFEVKCFND [T1F] | 2.18 |
| NCADRDNLTRRFSDLGFEVKCFND [T1N] | 3.03 |
| HCADRDNLTRRFSDLGFEVKCFND [T1H] | 3.37 |
| CCADRDNLTRRFSDLGFEVKCFND [T1C] | 2.88 |
| QCADRDNLTRRFSDLGFEVKCFND [T1Q] | 4.05 |
| MCADRDNLTRRFSDLGFEVKCFND [T1M] | 3.58 |
| PCADRDNLTRRFSDLGFEVKCFND [T1P] | 3.67 |
| LCADRDNLTRRFSDLGFEVKCFND [T1L] | 3.1 |
| TCMDRDNLTRRFSDLGFEVKCFND [A3M] | 3.45 |

| Variant | protein stability index |
| --- | --- |
| TCKDRDNLTRRFSDLGFEVKCFND [A3K] | 3.7 |
| TCGDRDNLTRRFSDLGFEVKCFND [A3G] | 3.38 |
| TCEDRDNLTRRFSDLGFEVKCFND [A3E] | 3.65 |
| TCLDRDNLTRRFSDLGFEVKCFND [A3L] | 3.14 |
| TCCDRDNLTRRFSDLGFEVKCFND [A3C] | 2.84 |
| TCPDRDNLTRRFSDLGFEVKCFND [A3P] | 4.03 |
| TCIDRDNLTRRFSDLGFEVKCFND [A3I] | 3.21 |
| TCRDRDNLTRRFSDLGFEVKCFND [A3R] | 2.97 |
| TCHDRDNLTRRFSDLGFEVKCFND [A3H] | 2.98 |
| TCTDRDNLTRRFSDLGFEVKCFND [A3T] | 3.63 |
| TCVDRDNLTRRFSDLGFEVKCFND [A3V] | 3.52 |
| TCQDRDNLTRRFSDLGFEVKCFND [A3Q] | 4.01 |
| TCFDRDNLTRRFSDLGFEVKCFND [A3F] | 2.52 |
| TCWDRDNLTRRFSDLGFEVKCFND [A3W] | 3.21 |
| TCSDRDNLTRRFSDLGFEVKCFND [A3S] | 3.64 |
| TCDDRDNLTRRFSDLGFEVKCFND [A3D] | 3.96 |
| TCNDRDNLTRRFSDLGFEVKCFND [A3N] | 3.38 |
| TCYDRDNLTRRFSDLGFEVKCFND [A3Y] | 2.9 |
| TCACRDNLTRRFSDLGFEVKCFND [D4C] | 1.58 |
| TCAARDNLTRRFSDLGFEVKCFND [D4A] | 2.61 |

| Variant | protein stability index |
| --- | --- |
| TMADRDNLTRRFSDLGFEVKCFND [C2M] | 3.38 |
| TVADRDNLTRRFSDLGFEVKCFND [C2V] | 3.93 |
| TLADRDNLTRRFSDLGFEVKCFND [C2L] | 3.25 |
| TWADRDNLTRRFSDLGFEVKCFND [C2W] | 2.36 |
| TQADRDNLTRRFSDLGFEVKCFND [C2Q] | 3.43 |
| TFADRDNLTRRFSDLGFEVKCFND [C2F] | 3.16 |
| TTADRDNLTRRFSDLGFEVKCFND [C2T] | 3.54 |
| TGADRDNLTRRFSDLGFEVKCFND [C2G] | 3.47 |
| TNADRDNLTRRFSDLGFEVKCFND [C2N] | 4.32 |
| TIADRDNLTRRFSDLGFEVKCFND [C2I] | 3.35 |
| THADRDNLTRRFSDLGFEVKCFND [C2H] | 3.71 |
| TEADRDNLTRRFSDLGFEVKCFND [C2E] | 4.84 |
| TPADRDNLTRRFSDLGFEVKCFND [C2P] | 4.04 |
| TSADRDNLTRRFSDLGFEVKCFND [C2S] | 3.88 |
| TYADRDNLTRRFSDLGFEVKCFND [C2Y] | 3.23 |
| TDADRDNLTRRFSDLGFEVKCFND [C2D] | 3.81 |
| TAADRDNLTRRFSDLGFEVKCFND [C2A] | 4.04 |
| TKADRDNLTRRFSDLGFEVKCFND [C2K] | 3.51 |
| TRADRDNLTRRFSDLGFEVKCFND [C2R] | 3.74 |

Variants of: B2
Assay: as above
Details: c terminus: a fixed tail appended

| Variant | protein stability index |
| --- | --- |
| YQLGEEALLKFREDEGFVREHEDR [E21H] | 4.18 |
| YQLGEEALLKFREDEGFVRENEDR [E21N] | 4 |
| YQLGEEALLKFREDEGFVREDEDR [E21D] | 4.4 |
| YQLGEEALLKFREDEGFVREYEDR [E21Y] | 4 |
| YQLGEEALLKFREDEGFVRECEDR [E21C] | 3.71 |
| YQLGEEALLKFREDEGFVREVEDR [E21V] | 4.29 |
| YQLGEEALLKFREDEGFVREGEDR [E21G] | 4.43 |
| YQLGEEALLKFREDEGFVREQEDR [E21Q] | 4.21 |
| YQLGEEALLKFREDEGFVREMEDR [E21M] | 4.21 |
| YQLGEEALLKFREDEGFVREWEDR [E21W] | 3.5 |
| YQLGEEALLKFREDEGFVREPEDR [E21P] | 4.65 |
| YQLGEEALLKFREDEGFVREREDR [E21R] | 3.05 |
| YQLGEEALLKFREDEGFVREAEDR [E21A] | 4.45 |
| YQLGEEALLKFREDEGFVRESEDR [E21S] | 4.71 |
| YQLGEEALLKFREDEGFVREKEDR [E21K] | 4.08 |
| YQLGEEALLKFREDEGFVREFEDR [E21F] | 4.06 |
| YQLGEEALLKFREDEGFVREIEDR [E21I] | 4.07 |
| YQLGEEALLKFREDEGFVRELEDR [E21L] | 3.07 |

| Variant | protein stability index |
| --- | --- |
| YQLGEEALLKFREDEGFVRETEDR [E21T] | 4.38 |
| YQLGEEALLKFREDEGFVREEQDR [E22Q] | 4.25 |
| YQLGEEALLKFREDEGFVREEWDR [E22W] | 4.01 |
| YQLGEEALLKFREDEGFVREECDR [E22C] | 4.32 |
| YQLGEEALLKFREDEGFVREEADR [E22A] | 4.75 |
| YQLGEEALLKFREDEGFVREESDR [E22S] | 4.02 |
| YQLGEEALLKFREDEGFVREEDDR [E22D] | 4.65 |
| YQLGEEALLKFREDEGFVREEYDR [E22Y] | 3.58 |
| YQLGEEALLKFREDEGFVREEGDR [E22G] | 4.23 |
| YQLGEEALLKFREDEGFVREEIDR [E22I] | 4.03 |
| YQLGEEALLKFREDEGFVREEMDR [E22M] | 4.92 |
| YQLGEEALLKFREDEGFVREEKDR [E22K] | 3.99 |
| YQLGEEALLKFREDEGFVREEFDR [E22F] | 3.82 |
| YQLGEEALLKFREDEGFVREENDR [E22N] | 3.85 |
| YQLGEEALLKFREDEGFVREEVDR [E22V] | 4.13 |
| YQLGEEALLKFREDEGFVREERDR [E22R] | 3.95 |
| YQLGEEALLKFREDEGFVREEPDR [E22P] | 4.16 |
